Molecular target: GST-tag (glutathione S-transferase) freed from GST-ΔN-ATAD2B
Test: SEC; Superdex 200 Increase 10/300 GL (ÄKTAprime), ATAD2B sample from E. coli against a molecular-weight standard mixture; peak 1 ~9 ml near thyroglobulin (670 kDa), peak 2 ~15 ml before ovalbumin (44 kDa)

stoichiometry N: 2
Substance: GST-tag (glutathione S-transferase) freed from GST-ΔN-ATAD2B
